In US8497072:
Positions count from the first letter of the chain named.

B1: monoclonal antibody 8C5 (antibody, V domains shown)
VH: EVQLVESGGGLVQPGGSLKLSCTASGFTFSSYGMSWVRQTPDKRLELVASIKNNGGSTYYPDSLKGRFTISRDNAKNTLYLQMSSLKSEDTAMYYCASGDYWGQGTTLTVSS
VL: DVVMTQTPLSLPVSLGDQASISCRSSQSLVHSNGDTFLHWYLQKPGQSPKLLIYKVSNRFSGVPDRFSGSGSGTDFTLKISRVEAEDLGIYFCSQSIHVPWTFGGGTKLEIKR
B2: monoclonal antibody 8F5 (antibody, V domains shown)
VH: B1 VH with T23A, K52N, N53S, L64V, T106S
VL: B1 VL with H31Y, F37Y, I90V, I97T

Target: soluble amyloid precursor protein alpha (UniProt P05067)
Experiment: sandwich ELISA, EC50 of this antigen divided by EC50 of Aβ(1-42) globulomer

Binder	selectivity factor (EC50 ratio against Aβ(1-42) globulomer) [fold]
B1	> 100
B2	> 100
